In publication PMC10403576, “The Ycf48 accessory factor occupies the site of the oxygen-evolving manganese cluster during photosystem II biogenesis” (Nature Communications, 2023):

T1: PsaI subunit of PSI (Synechocystis sp. PCC 6803, UniProt Q55330 1-40)
T1 construct: PsaI of Synechocystis sp; PCC 6803; source: endogenous, Synechocystis sp; PCC 6803 strain His-D2/ΔCP47; co-purified with His-tagged D2 (Ni-NTA, sucrose gradient)
T1 chain (looked up): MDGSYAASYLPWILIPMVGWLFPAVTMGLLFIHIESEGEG

B1: PsbI subunit of PSII (natural protein)
chain: not shown
notes: PsbI of Synechocystis sp; PCC 6803; source: endogenous, Synechocystis sp; PCC 6803 strain His-D2/ΔCP47; co-purified with His-tagged D2 (Ni-NTA, sucrose gradient)
B2: PsbF, beta subunit of Cyt b-559 (natural protein)
chain: not shown
notes: PsbF (cytochrome b-559 beta subunit) of Synechocystis sp; PCC 6803; source: endogenous, Synechocystis sp; PCC 6803 strain His-D2/ΔCP47; co-purified with His-tagged D2 (Ni-NTA, sucrose gradient)

Key:
PsaB RC subunit of PSI = target: T2, PsaB RC subunit of PSI (Synechocystis sp. PCC 6803, UniProt P29255 1-731); assay: cryo-EM structure; RCII/PSI complex co-purified from Synechocystis via His-tagged D2; 0.1% FOM; two classes at 3.2 Å and 3.1 Å, PSI-focused map at 2.9 Å; settings: both partners purified
T2 construct: PsaB of Synechocystis sp; PCC 6803; source: endogenous, Synechocystis sp; PCC 6803 strain His-D2/ΔCP47; co-purified with His-tagged D2 (Ni-NTA, sucrose gradient)

PsaI subunit of PSI = target: T1, PsaI subunit of PSI; assay: as above; settings: both partners purified

T2 sequence (P29255 whole entry): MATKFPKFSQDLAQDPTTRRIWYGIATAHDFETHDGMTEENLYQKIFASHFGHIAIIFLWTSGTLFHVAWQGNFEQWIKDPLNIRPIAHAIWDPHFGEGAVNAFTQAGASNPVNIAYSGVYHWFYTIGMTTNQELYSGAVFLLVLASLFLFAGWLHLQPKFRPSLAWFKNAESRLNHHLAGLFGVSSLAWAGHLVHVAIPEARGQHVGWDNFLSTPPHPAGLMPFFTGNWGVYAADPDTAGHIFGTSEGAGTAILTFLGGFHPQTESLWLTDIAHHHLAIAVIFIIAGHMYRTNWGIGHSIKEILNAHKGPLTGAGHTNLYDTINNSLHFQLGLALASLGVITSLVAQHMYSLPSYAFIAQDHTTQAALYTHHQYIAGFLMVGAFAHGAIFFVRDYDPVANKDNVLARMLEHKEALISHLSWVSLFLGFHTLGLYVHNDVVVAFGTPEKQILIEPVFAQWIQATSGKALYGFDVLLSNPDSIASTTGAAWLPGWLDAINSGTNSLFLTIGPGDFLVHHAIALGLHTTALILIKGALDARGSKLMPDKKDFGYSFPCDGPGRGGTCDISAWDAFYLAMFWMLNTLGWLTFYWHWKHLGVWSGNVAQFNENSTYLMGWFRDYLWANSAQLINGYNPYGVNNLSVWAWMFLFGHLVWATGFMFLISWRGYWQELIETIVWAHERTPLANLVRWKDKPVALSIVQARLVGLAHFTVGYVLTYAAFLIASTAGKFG

| Binder | binding result (PsaB RC subunit of PSI) | binding result (PsaI subunit of PSI) |
| --- | --- | --- |
| B1 | binds |  |
| B2 |  | binds |
